Test results from US20220002427A1, “BISPECIFIC ANTIBODY AGAINST BCMA AND CD3 AND AN IMMUNOLOGICAL DRUG FOR COMBINED USE IN TREATING MULTIPLE MYELOMA” (ENGMAB SARL, priority 2016, published 2022).

B1: Mab 21: anti-BCMA antibody, VH SEQ ID NO:10, VL SEQ ID NO:12 (antibody, V domains shown)
VH: EVQLLESGGGLVQPGGSLRLSCAASGFTFSDNAMGWVRQAPGKGLEWVSAISGPGSSTYYADSVKGRFTISRDNSKNTLYLQMNSLRAEDTAVYYCAKVLGWFDYWGQGTLVTVSS
VL: EIVLTQSPGTLSLSPGERATLSCRASQSVSEYYLAWYQQKPGQAPRLLIEHASTRATGIPDRFSGSGSGTDFTLTISRLEPEDFAVYYCQQYGYPPDFTFGQGTKVEIK
modifications: Variable region VH; Variable region VL
B2: Mab 27: anti-BCMA antibody, VH SEQ ID NO:38, VL SEQ ID NO:12 (antibody, V domains shown)
VH: EVQLLESGGGLVQPGGSLRLSCAASGFTFSSAPMGWVRQAPGKGLEWVSAISYIGHTYYADSVKGRFTISRDNSKNTLYLQMNSLRAEDTAVYYCAKVLGWFDYWGQGTLVTVSS
VL: EIVLTQSPGTLSLSPGERATLSCRASQSVSEYYLAWYQQKPGQAPRLLIEHASTRATGIPDRFSGSGSGTDFTLTISRLEPEDFAVYYCQQYGYPPDFTFGQGTKVEIK
modifications: Mab27 VH; Variable region VL
B3: Mab 22: anti-BCMA antibody, VH SEQ ID NO:10, VL SEQ ID NO:13 (antibody, V domains shown)
VH: EVQLLESGGGLVQPGGSLRLSCAASGFTFSDNAMGWVRQAPGKGLEWVSAISGPGSSTYYADSVKGRFTISRDNSKNTLYLQMNSLRAEDTAVYYCAKVLGWFDYWGQGTLVTVSS
VL: EIVLTQSPGTLSLSPGERATLSCRASQSVSSYYLAWYQQKPGQAPRLLISGAGSRATGIPDRFSGSGSGTDFTLTISRLEPEDFAVYYCQQYGYPPDFTFGQGTKVEIK
modifications: Variable region VH; Variable region VL Mab22
B4: Mab 42: anti-BCMA antibody, VH SEQ ID NO:10, VL SEQ ID NO:14 (antibody, V domains shown)
VH: EVQLLESGGGLVQPGGSLRLSCAASGFTFSDNAMGWVRQAPGKGLEWVSAISGPGSSTYYADSVKGRFTISRDNSKNTLYLQMNSLRAEDTAVYYCAKVLGWFDYWGQGTLVTVSS
VL: EIVLTQSPGTLSLSPGERATLSCRASQSVSDEYLSWYQQKPGQAPRLLIHSASTRATGIPDRFSGSGSGTDFTLAISRLEPEDFAVYYCQQYGYPPDFTFGQGTKVEIK
modifications: Variable region VH; Variable region VL Mab42
B5: Mab 39: anti-BCMA antibody, VH SEQ ID NO:40, VL SEQ ID NO:12 (antibody, V domains shown)
VH: EVQLLESGGGLVQPGGSLRLSCAASGFTFTQNAMGWVRQAPGKGLEWVSAISPTGFSTYYADSVKGRFTISRDNSKNTLYLQMNSLRAEDTAVYYCAKVLGWFDYWGQGTLVTVSS
VL: EIVLTQSPGTLSLSPGERATLSCRASQSVSEYYLAWYQQKPGQAPRLLIEHASTRATGIPDRFSGSGSGTDFTLTISRLEPEDFAVYYCQQYGYPPDFTFGQGTKVEIK
modifications: Mab39 VH; Variable region VL
B6: Mab 33: anti-BCMA antibody, VH SEQ ID NO:39, VL SEQ ID NO:12 (antibody, V domains shown)
VH: EVQLLESGGGLVQPGGSLRLSCAASGFTFYTNAMGWVRQAPGKGLEWVSAINRFGGSTYYADSVKGRFTISRDNSKNTLYLQMNSLRAEDTAVYYCAKVLGWFDYWGQGTLVTVSS
VL: EIVLTQSPGTLSLSPGERATLSCRASQSVSEYYLAWYQQKPGQAPRLLIEHASTRATGIPDRFSGSGSGTDFTLTISRLEPEDFAVYYCQQYGYPPDFTFGQGTKVEIK
modifications: Mab33 VH; Variable region VL

Legend:
huBCMA Fc(kih) = target: T1, huBCMA Fc(kih) (Homo sapiens, UniProt Q02223); test: Biacore T200 SPR, anti-BCMA antibodies to recombinant human BCMA Fc(kih); type: binding; conditions: analyte huBCMA Fc(kih), 1:1 Langmuir, 25° C.
T1 construct: The extracellular domains of human and cynomolgus BCMA comprised methionine 4 to asparagine 53, and methionine 4 to asparagine 52, respectively; made in house; host or cells: HEK EBNA cells
T1 sequence (Q02223 4-53): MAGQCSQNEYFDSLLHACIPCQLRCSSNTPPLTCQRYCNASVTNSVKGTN
Procedure: (§1) Assessment of binding of anti-BCMA antibodies to recombinant BCMA by surface plasmon resonance (SPR) as follow. All SPR experiments were performed on a Biacore T200 at 25° C. with HBS-EP as running buffer (0.01 M HEPES pH 7.4, 0.15 M NaCl, 3 mM EDTA, 0.005% Surfactant P20, Biacore, Freiburg/Germany). The avidity of the interaction between anti-BCMA antibodies and recombinant BCMA Fc(kih) (human and cynomolgus) was determined. Biotinylated recombinant human and cynomolgus BCMA Fc(kih) were directly coupled on a SA chip following instructions (Biacore, Freiburg/Germany). The immobilization level ranged from 200 to 700 RU. The anti-BCMA antibodies were passed at a 2-fold concentration range (1.95 to 500 nM) with a flow of 30 μL/minutes through the flow cells over 120 seconds. The dissociation was monitored for 180 seconds. Bulk refractive index differences were corrected for by subtracting the response obtained on the reference flow cell. Here, the anti-BCMA antibodies were flown over an empty surface previously activated and deactivated as described in the standard amine coupling kit. Apparent kinetic constants were derived using the Biacore T200 Evaluation Software (vAA, Biacore AB, Uppsala/Sweden), to fit rate equations for 1:1 Langmuir binding by numerical integration, despite the bivalency of the interaction for comparison purposes. The affinity of the interaction between anti-BCMA antibodies and recombinant human BCMA Fc(kih) was also determined. Anti-human Fab antibody (GE Healthcare) was directly coupled on a CMS chip at pH 5.0 using the standard amine coupling kit (Biacore, Freiburg/Germany). The immobilization level was about 6500 RU. Anti-BCMA antibody was captured for 90 seconds at 25 nM. Recombinant human BCMA Fc(kih) was passed at a 4-fold concentration range (1.95 to 500 nM) with a flow of 30 μL/minutes through the flow cells over 120 seconds. The dissociation was monitored for 120 seconds. Bulk refractive index differences were corrected for by subtracting the response obtained on reference flow cell. Here, recombinant BCMA was flown over a surface with immobilized anti-human Fab antibody but on which HBS-EP has been injected rather than anti-BCMA antibody. Kinetic constants were derived using the Biacore T100 Evaluation Software (vAA, Biacore AB, Uppsala/Sweden), to fit rate equations for 1:1 Langmuir binding by numerical integration (Table 4).

huBCMA on HEK cells = target: T2, huBCMA on HEK cells (Homo sapiens, UniProt Q02223); test: Binding of IgG variants on HEK-huBCMA cells (flow cytometry)
T2 construct: expressed in transfected cells; host or cells: HEK cells (HEK-huBCMA)
T2 sequence (Q02223 1-184): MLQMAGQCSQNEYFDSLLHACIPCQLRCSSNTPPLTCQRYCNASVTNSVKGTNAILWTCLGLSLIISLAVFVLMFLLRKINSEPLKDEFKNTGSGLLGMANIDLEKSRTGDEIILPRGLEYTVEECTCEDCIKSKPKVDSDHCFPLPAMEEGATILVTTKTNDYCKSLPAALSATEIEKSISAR
From the text: FIGS. 18A-18B. FIG. 18A: Binding affinity of BCMA antibodies on HEK-huBCMA cells as measured by flow cytometry. The anti-BCMA antibodies were used as first antibody then a secondary PE-labeled anti-human Fc was used as detection antibody. […] FIG. 18B: Binding affinity of BCMA antibodies on HEK-huBCMA cells as measured by flow cytometry. The anti-BCMA antibodies were used as first antibody then a secondary PE-labeled anti-human Fc was used as detection antibody.
Due to their experience the inventors selected out of these 70 clones further 27 clones based on their binding properties to huBCMA, cynoBCMA, murineBCMA, and ratio, measured in different assays. Out of these clones 4VH and 9VL clones were selected, which results in […]. Binding affinity on HEK-huBCMA cells was measured (FIG. 18 and Table 2E). […] However Mab21, Mab 22, Mab27, Mab33, Mab39, and Mab42 were selected due to their overall properties, like affinity for huBCMA, cynoBCMA, binding as bispecific antibody to BCMA-positive multiple myeloma cell lines H929, L363 and RPMI-8226 by flow cytometry, killing potency of myeloma cells H929, L363 and RPMI-8226, of viable myeloma plasma cells from patient bone marrow aspirates, and pharmacokinetics (PK)) and pharmacodynamics (killing of BCMA positive cells) data in cynomolgus monkeys.

cynoBCMA Fc(kih) = test: Biacore T200 SPR, anti-BCMA antibodies to recombinant cynomolgus BCMA Fc(kih); cyno/hu affinity gap; type: binding; conditions: analyte cynoBCMA Fc(kih), 1:1 Langmuir, 25° C.
Procedure: as §1, with “Here, recombinant BCMA was flown over a surface with immobilized anti-human Fab antibody but on which HBS-EP has been injected rather than anti-BCMA antibody.” left out
Based on the affinity values described in Example 2, the affinity of anti-BCMA antibodies to human BCMA vs. cynomolgus BCMA were compared and cyno/hu affinity ratio (gap) values were calculated (Table 5). Affinity cyno/hu gap was calculated as affinity of antibody to cynomolgus BCMA divided by affinity to human BCMA and means that BCMA antibody binds to human BCMA with x fold binding affinity than to cynomolgus BCMA, where x=cyno/hu gap value.

Row | Molecule | Koff (huBCMA Fc(kih)) [s⁻¹] | Kon (huBCMA Fc(kih)) [M⁻¹ s⁻¹] | binding to huBCMA on HEK cells compared with Mab 83A10 (huBCMA on HEK cells) | Koff (cynoBCMA Fc(kih)) [s⁻¹] | Kon (cynoBCMA Fc(kih)) [M⁻¹ s⁻¹]
1 | B1 | 4.39e-05 | 851000 | not significantly better | 0.000235 | 491000
2 | B2 | 5.93e-05 | 359000 | not significantly better | 0.000455 | 216000
3 | B3 | 5.15e-05 | 814000 | not significantly better | 0.000442 | 454000
4 | B4 | 0.000298 | 803000 | not significantly better | 0.000453 | 707000
5 | B5 | 5.58e-05 | 361000 | not significantly better | 0.000467 | 215000
6 | B6 | 3.55e-05 | 200000 |  | 9.76e-05 | 132000
